Series [1] has as its system protein kinase C (PKC) substrate.
The test system of series [2] is poly (Arg, Pro, Thr) 6:3:1.
The test system of series [3] is mylein basic protein (MBP).

B1: human checkpoint kinase (hChk1) (enzyme)
chain: MAVPFVEDWDLVQTLGEGAYGEVQLAVNRVTEEAVAVKIVDMKRAVDCPENIKKEICINKMLNHENVVKFYGHRREGNIQYLFLEYCSGGELFDRIEPDIGMPEPDAQRFFHQLMAGVVYLHGIGITHRDIKPENLLLDERDNLKISDFGLATVFRYNNRERLLNKMCGTLPYVAPELLKRREFHAEPVDVWSCGIVLTAMLAGELPWDQPSDSCQEYSDWKEKKTYLNPWKKIDSAPLALLHKILVENPSARITIPDIKKDRWYNKPLKKGAKRPRVTSGGVSESPSGFSKHIQSNLDFSPVNSASSEENVKYSSSQPEPRTGLSLWDTSPSYIDKLVQGISFSQPTCPDHMLLNSQLLGTPGSSQNPWQRLVKRMTRFFTKLDADKSYQCLKETCEKLGYQWKKSCMNQVTISTTDRRNNKLIFKVNLLEMDDKILVDFRLSKGDGLEFKRHFLKIKGKLIDIVSSQKVWLPAT
modifications: possible His tag
Consider B1, for which the “in vitro protein kinase phosphorylation assay ([gamma-33P]ATP incorporation, cpm)” value is “significant activity was also found with ... protein kinase C (PKC) substrate” in series [1]; “significant activity was also found with ... poly (Arg, Pro, Thr) 6:3:1” in series [2]; “significant activity was also found with ... cAMP substrate” in the series with cAMP substrate; “hChk1 showed the highest phosphorylating activity using a calmodulin substrate or the synthetic peptide substrate, poly (Arg, Ser) 3:1” in the series on calmodulin substrate; “significant activity was also found with mylein basic protein (MBP)” in series [3]; “significant activity was also found with ... casein” in the series with casein. Besides, in the series on poly (Arg, Ser) 3:1, the “in vitro protein kinase phosphorylation assay ([gamma-33P]ATP incorporation, cpm)” value is “hChk1 showed the highest phosphorylating activity using a calmodulin substrate or the synthetic peptide substrate, poly (Arg, Ser) 3:1”.
